The results in this text go back to patent publication US20170173114A1, “METHODS AND COMPOSITIONS FOR INDUCTION OF UCP1 EXPRESSION” (Joslin Diabetes Center, Inc., priority 2014, published 2017).

One assay deals with UCP1. Briefly: UCP1 mRNA expression (Q-RT-PCR) in WT-1 brown preadipocytes. The assay is classed as cell-based, murine. How it is done:
Total RNA was isolated with QIAzol lysis reagent (Qiagen, Valencia, Calif.) and purified by RNeasy Mini columns (Qiagen) following the manufacture's instructions. cDNA was prepared from total RNA using the Advantage RT-PCR kit (BD Biosciences, Palo Alto, Calif.) according to manufacturer's instructions. Diluted cDNA was used in a PCR reaction with SYBR Green Master Mix (Applied Biosystems, Foster City, Calif.) and primers specifically designed for detection of the gene of interest. PCR reactions were run in duplicate for each sample and quantitated in the ABI Sequence Detection System (Applied Biosystems). Data were expressed as arbitrary units after normalization to levels of expression of internal controls for each sample. Sequences of primers for specific genes are each obtained from the published literature or designed using publically available gene sequence databases. Unless otherwise indicated, gene expression data described in the examples below was obtained using QPCR.
(§1) The effect of FGF6 on differentiation of WT-1 murine brown preadipocytes was also examined. WT-1 cells can be induced to undergo brown adipocyte differentiation, characterized by lipid accumulation and expression of adipogenic and brown fat markers, as described above (Klein et al. (1999) J Biol Chem 274:34795; Tseng et al. (2005) Nat Cell Biol 7:601). WT-1 cells were treated with FGF6 in growth media (DMEM+10% FBS), a vehicle control (“control” or “C” referred to in FIGS. 3A-D), or induction media (“induction” or “I” referred to in FIGS. 3A-D) as described above for seven days. Following the treatment, cells were examined for the color of the culture media in combination with oil Red O staining, expression of adipogenic markers, expression of brown fat markers, immunofluorescent staining of cells with UCP1 and DPAI, and Western blot analysis to determine the presence of UCP1 and β-tubulin. The results are described in FIGS. 3A to 3D.
UCP1 mRNA expression in brown adipocyte cells was determined at FGF6 concentrations ranging from 0 to 300 ng/ml in the absence of induction cocktail.
In order to determine the length of time necessary to induce UCP1 expression upon exposure to of cells to FGF6, an experiment was performed whereby FGF6 was administered to brown preadipocytes at a concentration of 200 ng/ml and UCP1 expression was determined. FGF21 and a control were also used in the time course experiment. FGF21, a member of the endocrine FGF ligands that has been implicated in the browning of white fat (Fisher F. M. et al., Genes Dev. 26:271-281, 2012). […] FGF6 could acutely induce a significant increase of UCP1 expression as early as 4 hours after a 200 ng/ml dose, as described in FIG. 4B. At 24 hours, the fold-induction of UCP1 mRNA by FGF6 reached 700-fold higher than the untreated cells, as described in FIG. 4B.
To assess FGF6's role in the regulation of mitochondrial activity, FGF6 was stably expressed in WT-1 brown preadipocytes and 3T3-F442A white preadipocytes. Stable cells were generated by viral infection followed by drug selection.
FGF2, FGF6 and FGF9 were used at a dosage of 50 ng/mL, 100 ng/mL, 200 ng/mL or 300 ng/mL. FGF21 was used at the dosage of 50 ng/ml and 500 ng/mL. The concentration of BMP7 was 3.3 nM. RNA was isolated and UCP1 and PPARγ expression levels were evaluated by quantitative reverse transcription polymerase chain reaction (Q-RT-PCR) analysis after 24 hours (i.e., 1 day) (FIG. 14A), 2 days (FIG. 14B), 5 days (FIG. 14C) and 7 days (FIG. 14D) of treatment. All experiments were performed triplicate and the data are presented as mean+/−SEM.
FGF2, FGF6 and FGF9 were used at a dosage of 200 ng/mL. FGF21 was used at a dosage of 500 ng/mL. The concentration of BMP7 was 3.3 nM. mRNA was isolated and UCP1 and PPARγ expression levels were evaluated by quantitative reverse transcription polymerase chain reaction (Q-RT-PCR) analysis after 24 hours (i.e., 1 day), 2 days, 5 days and 7 days of treatment (FIG. 15). […]

Assay [1] relates to WT-1 murine brown preadipocytes. Briefly: Oil Red O staining of lipid accumulation in WT-1 cells. The assay is classed as cell-based. Particulars: WT-1, absence of induction cocktail. As to the method: Cell culture dishes were washed twice with phosphate-buffered saline and fixed with 10% buffered formalin overnight at 4° C. Cells were then stained for 2 hours at room temperature with a filtered oil red O solution (0.5% oil red O in isopropyl alcohol), washed twice with distilled water, and visualized.
as §1

The next assay relates to WT-1 brown preadipocytes. Briefly: Mitochondrial DNA copy number and mitochondrial gene expression in brown preadipocytes. The class given is cell-based, murine. Particulars: 24 hours; vs control. As to the method: In order to determine whether the marked changes in mitochondrial respiration observed in preadipocytes treated with FGF6 is due to increased mitochondrial mass and/or changes in mitochondrial dynamics, in addition to increased UCP1 expression, mitochondrial DNA (mtDNA) copy number (as the ratio of CoxII (mtDNA) over β-globin (nuclear DNA)) and expression of genes involved in mitochondrial replication (e.g., mTFA, Nrf1 and Nrf2) in brown preadipocytes was measured.

Assay [2] concerns 3T3-F442A white preadipocytes. Briefly: 2-deoxy-[3H]glucose uptake in 3T3-F442A white preadipocytes. Particulars: FGF6 overexpressing vs control and EGF. The assay is classed as cell-based. As to the method: The following glucose uptake assay was used to determine whether FGF6 could impact cellular glucose uptake. Specifically, glucose uptake was monitored in WT-1 brown preadipocytes and 3T3-F442A white preadipocytes in the presence or absence of FGF6. After serum starvation in DMEM/H medium containing 1% of BSA for 2-3 h, cells were washed with HEPES buffer and then incubated with or without 100 nM insulin for 30 min in DMEM/H medium containing 1% of BSA. Glucose transport was determined by the addition of 2-deoxy-[3H]glucose (0.1 mM, 0.5 μCi/mL; PerkinElmer Life and Analytical Science, Waltham, Mass.). After 5 minutes of incubation, the reaction was stopped by ice-cold PBS and cells were washed twice with ice-cold PBS. Cells were then lysed in 0.1% SDS, and glucose uptake was assessed in 4 mL of scintillant using Beckman LS6500 scintillation counter (Beckman Coulter, Indianapolis Ind.). Nonspecific 2-deoxy-[3H]glucose uptake was measured in the presence of cytochalasin B (20 μM) and was subtracted from the total uptake to get specific glucose uptake. Results were expressed as the mean±s.e.m. of the indicated number of experiments. The protein content was determined by the Bradford method.

[3] abbreviates: 0 to 300 ng/ml, absence of induction cocktail, day 7.

“Also recorded” adds a separate entry of the source.

B1: FGF6: fibroblast growth factor 6; recombinant human FGF from R&D Systems, or mouse FGF6 cDNA overexpressed by lentiviral vector (protein)
chain: KRQRRLYCNVGIGFHLQVLPDGRISGTHEENPYSLLEISTVERGVVSLFGVRSALFVAMNSKGRLYATPSFQEECKFRETLLPNNYNAYESDLYQGTYIALSKYGRVKRGSKVSPIMTVTHFLPRI
For B1, in the assay on UCP1 (setting [3]), the “FGF6 concentration at which UCP1 gene expression plateaued” value is recorded as “about 200 ng/ml” and the “UCP1 gene expression, dose response” value is reported as “dose-dependent manner”. In the assay on UCP1 (200 ng/ml), the “earliest time of significant increase of UCP1 expression” value was determined as 4 h. For the same molecule, the “fold-induction of UCP1 mRNA over untreated cells” value with UCP1 (200 ng/ml, 24 hours) is 700 fold. The “UCP1 levels with prolonged exposure” value in the assay on UCP1 (200 ng/ml, time course) is “continued to rise”. The UCP1 expression level entry in the assay on UCP1 (50-300 ng/mL with insulin and T3, 1, 2, 5 and 7 days, dose-responsive) is on record as “very high levels of UCP1”. Further, the “UCP1 expression level, time course” value in the assay with UCP1 (FGF2, FGF6, FGF9 200 ng/mL, FGF21 500 ng/mL, with insulin and T3, 1, 2, 5, 7 days) is reported as “very high levels of UCP1”. For the same molecule, the “UCP1 mRNA expression” value with UCP1 (WT-1, 24 hours, vs vehicle) is reported as “significantly induced”. Also, in the assay on UCP1 (WT-1, growth media, seven days, vs control or induction media), the “UCP1 mRNA expression” value is “significantly increased; also recorded: extremely high levels”. Moreover, in the assay on UCP1 (constitutive overexpression of FGF6 in WT-1), the “UCP1 expression over basal level” value is “greatly increased; also recorded: marked increases”. Besides, in assay [1], the “lipid accumulation by Oil Red O staining” value is given as “very little to no lipid accumulation”. In the assay with WT-1 brown preadipocytes, the “expression of nuclear-encoded mitochondrial genes” value is reported as “not significantly altered” and the “mitochondrial DNA copy number (CoxII over β-globin)” value was “no significant difference; also recorded: does not alter”. Further, the “glucose uptake level in F442A (white) preadipocytes” value in assay [2] is “increased”.
